Values of other authors as cited in article PMC4041481.

Target: His37 (UniProt position 37, IIGILHLILWI)
Conditions: M2 tetramer assembled in a lipid bilayer

Matrix protein 2 (M2 proton channel) (Influenza A virus (strain not stated))
pKa: <5.0
